This note sets out measurements from article PMC3898472, “Molecular Basis for DNA Double-Strand Break Annealing and Primer Extension by an NHEJ DNA Polymerase”.

The data set concerns the target Mt-PolDom K217A (UniProt P9WNV3 1-300, K217A). Kind of data set: EMSA. The settings on record: protein: recombinant; label: 32P 5'-end label.

B1: 1-nt gapped SP1C/T13C/DG-P (dsDNA)
DNA 1: AGAAGTGTATCTAGTACTCACTGTGATC
DNA 2: GATCACAGTGAGTAC
DNA 3: AGATACACTTCT
modifications: 5'-phosphate on DG
Take B1: the binding result was “binds”.
